We go through one substance from publication PMC7327620.

The target in the assay is Tailless ΔHoc T4 phage capsids (bacteriophage T4) (UniProt P19896). The assay is described as follows: native gel or EMSA; Mal–Hoc mixed with ΔHoc T4 capsids at a series of molar ratios; 22°C for 2 h or overnight (16 h) in PBS with 10 mM MgCl2; 1% agarose, 100 V for 2 h, 1x Tris–Acetate–EDTA; GelCode blue protein stain. (Mobility shift assays separate free from complexed probe on a gel.)

Values joined by “and” are separate entries in the source; they are usually repeats but may differ in a detail not shown here. Equal values may be shown once.

Take Maltase–SC–St–Hoc fusion (complex): the stoichiometry N (Mal–Hoc per capsid) was 60 to 120 (2×) and 90.
